In the supplement of paper PMC9170038:

System: MS2 coat protein
Test: apparent KD of MS2 coat protein; designed switch direction (-1 OFF switch, 1 ON switch): -1; higher = weaker reporter binding
Procedure, shortened: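 For each design, the apparent KD is the median over clusters of curves fitted to normalised cluster fluorescence. Clusters held RNA switches with common flanks, transcribed on Illumina chips by stalled E. coli RNA polymerase. These were titrated with SNAP-549-labelled MS2 coat protein, doubling from 0.7 or 1.5 nM to 3 µM, without input, with 200 uM small-molecule ligand, or with an oligonucleotide input.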

[1] = Eterna round: R95, input ligand: FMN 200 uM
[2] = Eterna round: R95, input ligand: microRNA oligo, concentration not stated
[3] = Eterna round: R95, input ligand: none
[4] = input ligand: microRNA oligo, concentration not stated

Sequence | apparent KD of MS2 coat protein (input ligand: FMN 200 uM) [nM] | apparent KD of MS2 coat protein (input ligand: none) [nM] | apparent KD of MS2 coat protein [1] [nM] | apparent KD of MS2 coat protein [2] [nM] | apparent KD of MS2 coat protein [3] [nM] | apparent KD of MS2 coat protein [4] [nM]
GCAAGCAGCUUGGAAUGAGACAUGAGGAUCACCCAUGUUCAGCACAAAGCCUUCAAUCAUCAGCUCGAAAGUAAAUG [Eternabot (L2) Solution 16] (Eterna round: R97, puzzle: Sensor, turn-off variant 1) | 14.7 | 16.3 |  |  |  | 
AAAGGUGAGUAGGAUAUCCGCGCACGAAUAAAAGGAGAAGGACUUACAUGAGGAUCACCCAUGUAAGGUGGUAA [Ationbi] (puzzle: Exclusion 6) |  |  | 19.4 | 11.7 | 15.1 | 
UUUAGUUCAGGAUAUGUAGAUUUUAACAUGAGGAUCACCCAUGUAGAUCCUGAAUUAACUACAGAAGGGAACAUUG [Exclusion 5: 2:b] (puzzle: Exclusion 5) |  |  | 50.1 | 18.2 | 16.5 | 
UAUUAGCUAGGAUAUACAUGAGGAUCACCCAUGUCACGGGUCCACUUGUCCUAUGCGUGUAGAAGGAGCGACCC [JL Ceriza mod 3] (puzzle: Exclusion 3) |  |  |  | 20.7 |  | 
UAUAUGUCAGGAUAUCGCAACUGCGCGCGCAAGAAUCAUAACGAGAAGGGACAUGAGGAUCACCCAUGUACACU [I dont know] (puzzle: Exclusion 4) |  |  |  | 18.1 |  | 
UAUAAGGUAGGAUAUACGAAUAAAUAGGGUAGAAUAAUAACACAUGAGGAUCACCCAUGUAGAAGGACCAAUAG [Mat - Exclusion 2 - Mod of my Tesla design - D27] (puzzle: Exclusion 2) |  |  | 58.9 | 21 | 17.2 | 
CCAGCGUAUGUAAGGAUAUGCUGGUCGAAAGAUCAGCAGAAGGUACAUGAGGAUCACCCAUGUGUAAUCGUUGG [Mod of JL 5 - Jieux - Brourd's mod of Exclusion 4] (Eterna round: R97, puzzle: Brourd's mod of Exclusion 4) | 52.7 | 18.9 |  |  |  | 
GAUCCACAUGAGGAUCACCCAUGUGAGGAUAUGAUACUAUGUACUUCGGUACAUAGUAUCAGAAGGCAUAUGAA [Ex1-3: 47] (puzzle: Exclusion 1) |  |  |  | 45.6 |  | 
GGCGAAGUAGGAUAUACAUGAGGAUCACCCAUGUAACCAGAUGGCGUAGGUCUUCUAUGUAGAAGGGCUACGCC [jl-ex3-4.34 ViennaUCT mod] (Eterna round: R97, puzzle: Exclusion 3) | 16.9 | 17 |  |  |  | 
GGUGGACAUGAGGAUCACCCAUGUGAGGAUAUCGGCUGGCUAGCGGCGGACGGCUUCUCGAGAAGGCGCAUUGU [Exclusion 1 V83] (Eterna round: R96, puzzle: Exclusion 1) | 68.8 | 64.5 |  |  |  | 42.2
UGCGGGCUUUUGAGACCUCACAUGAGGAUCACCCAUGUGCUUGUCUUGUGGGUCGGUCGGUCGUUGGCUGGCUGGCU [-29.6, -52.1 kcal, A 10%] (Eterna round: R97, puzzle: Sensor, turn-off variant 1) | 18 | 17.8 |  |  |  | 
AUUGUAUGGAAAGGAUAUAGAAUAUUAUUUUAACAUGAGGAUCACCCAUGUAACCUUAUGUGUAGCUAGAAGGUUCGUUUGUUA [Title] (Eterna round: R96, puzzle: Exclusion NG 2) |  |  |  |  |  | 69.2
ACAUGAGGAUCACCCAUGUCCGGCUGGUCCGUCUCGGCUGUCGAGGAUAUAGCUCGGUGUCCGCGCUAGAAGGCGGGAGCCGGC [Aenatbe mod 83] (Eterna round: R96, puzzle: Exclusion NG 3) | 91.5 | 73.4 |  |  |  | 64.7
CAGCCCUGAGGAUAUCCCUACUUGCACAUGAGGAUCACCCAUGUCCUCCUCCGGGCUUCGGGAGAAGGCAGGUCUC [Megrez-7.5] (Eterna round: R97, puzzle: Exclusion 5) | 23.8 | 17 |  |  |  | 
UGGGUCCAAGGAUAUACAUGAGGAUCACCCAUGUGAGAUUCGAUGCUGUGCCAAUUGUGUAGAAGGUGGCCACC [Eternabot (L2) Solution 32] (Eterna round: R97, puzzle: Exclusion 3) | 45.3 | 44.1 |  |  |  | 
CUGAGCAGACGGAGAUCCAACAUGAGGAUCACCCAUGUCUCAAAAGCUUUUUGCUCGUCUUACCCUCCUCUGCUCUC [Ticeisor] (puzzle: Sensor v3, turn-off variant 1) |  |  | 19.1 | 40.3 | 15.1 | 
GCUGGUCGAGGAUAUGCAUUCGUGCUUCGGCACGUAAGGUCACAUGAGGAUCACCCAUGUAGAAGGCGACCAGC [E2/6-A1] (Eterna round: R97, puzzle: Exclusion 2) | 30.2 | 17.5 |  |  |  | 

Sequence | apparent KD of MS2 coat protein (input ligand: FMN 200 uM) [nM] | apparent KD of MS2 coat protein (input ligand: none) [nM] | apparent KD of MS2 coat protein [1] [nM] | apparent KD of MS2 coat protein [2] [nM] | apparent KD of MS2 coat protein [3] [nM] | apparent KD of MS2 coat protein [4] [nM]
GCGUUCUGAGGAUAUACAUGAGGAUCACCCAUGUUGAGAAAUAAGAAUAAGCCCUUAAGUAGAAGGCAGAGUGC [JR_Ex3_Sub073] (Eterna round: R97, puzzle: Exclusion 3) | 105 | 27.8 |  |  |  | 
CGUCAACAUGAGGAUCACCCAUGUUAGGAUAUAGAGCCAGGGCACGACGCUAACCAGUCUAGAAGGGACGUGGG [Eternabot (Original) Solution 5] (Eterna round: R97, puzzle: Exclusion 1) | 45.9 | 37.1 |  |  |  | 
CGGUGUAACACAGGAUAUCAUCGCAACUGACGUUGAGAAGGGUGACAUGAGGAUCACCCAUGUGAUUUCUCAAUAUUAUACAUC [Prohibition 83 - Jieux - Exclusion NG 1] (Eterna round: R96, puzzle: Exclusion NG 1) | 508 | 629 |  |  |  | 481
CUUCUGUGAGGAUAUUAGUAGUAAAUGAAUAAAAUUAUUACUGAGAAGGCACAUGAGGAUCACCCAUGUUCCUC [Mat - Exclusion 4 - Eli Mod - D12] (Eterna round: R97, puzzle: Exclusion 4) | 386 | 36.3 |  |  |  | 
UAUUAGCAAGCGAGAUCCCACAUGAGGAUCACCCAUGUGCUCGUCUUAUAAAAGACUGUGACGAUAGUCACGGUCAC [Mat - Sensor, turn-off var - Eli Mod - D22] (Eterna round: R97, puzzle: Sensor, turn-off variant 1) | 14.2 | 13.1 |  |  |  | 
AAUUAUUAUUGAGGAUAUGGUAGUGAAACACUACCAGAAGGCGGUAUAAACAUGAGGAUCACCCAUGUGAGCCUGAUGCUUAUG [Ex NG1 #45] (Eterna round: R96, puzzle: Exclusion NG 1) |  |  |  |  |  | 18.6
UUUUGGCAGGCAAUUAUUAACAUGAGGAUCACCCAUGUGCAUCCAAAAUUACUUUUAGAUCAAGCUCGUCUUAUAUA [JR_STOV1_Sub087] (Eterna round: R97, puzzle: Sensor, turn-off variant 1) | 29.9 | 35.1 |  |  |  | 
CCUCCACAUGAGGAUCACCCAUGUCAGGAUAUCGCGCGCGCGUUUUCGGUCUUUCGCGCGAGAAGGGACGACUG (puzzle: Exclusion 1) |  |  |  | 29 |  | 
AGAGUGCUGCGAGGAUAUACAUGAGGAUCACCCAUGUAAUCGUGUGAGGCAAAGCCUCACACGAUGUAGAAGGCGCAGUACUCA [Mat - Exclusion NG 2 - Mod of JL - D24] (Eterna round: R96, puzzle: Exclusion NG 2) | 13.1 | 16.7 |  |  |  | 12.8
CAAAAGAAAGGAUAUACUUGAGGAUCACCCAAGUAUGCCCGCUGAAGCGGGCCCUUGAGUAGAAGGUUCAUAAA [Ened] (Eterna round: R97, puzzle: Exclusion 3) | 33.2 | 15.6 |  |  |  | 
GCAAAAUAUCAGGAUAUGACUAGCUGCGGCUAGUCAGAAGGGAUAACAUGAGGAUCACCCAUGUGAUAAAGUGU [JR_Ex6_Sub029] (Eterna round: R97, puzzle: Exclusion 6) | 66.7 | 60.4 |  |  |  | 
CCGGUGUGAGGAUAUCGUGGCUUGCAGGAAACGCUAAGUCGCGAGAAGGCACAUGAGGAUCACCCAUGUGUAUC [Eternabot (L2) Solution 54] (Eterna round: R97, puzzle: Exclusion 4) | 62.8 | 24.7 |  |  |  | 
AGCCCUUGUGUCAGGAUAUGCAUCCUUAAUGGACGGCAGAAGGGACAUGAGGAUCACCCAUGUAAAUAGAAAAU [Sodixeti] (puzzle: Brourd's mod of Exclusion 4) |  |  | 30.1 | 111 | 177 | 
AAACCUGAAGUUAGGAUAUGAAGUAUCACUAUACUUCAGAAGGAACUUGAGGAUCACCCAAGUAGCCGUGAGGC [jl-bmx4.4.66 ViennaUCT mod] (Eterna round: R97, puzzle: Brourd's mod of Exclusion 4) | 110 | 23 |  |  |  | 
GAGUGACAUGAGGAUCACCCAUGUGAGGAUAUCGGACGGACCAAAUUAACAACACCCGCGAGAAGGCACAUCGG [Exclusion 1 V21] (puzzle: Exclusion 1) |  |  |  | 110 |  | 
GGUGCUGGCGCGUCGGUGUUGGUGCAAUAAGCUUGUGAAACAUGAGGAUCACCCAUGUCCUCGUGGGCUCGUCUUGU [salish99_TOv2_r2_090] (puzzle: Sensor v3, turn-off variant 2) |  |  | 480 | 12.5 | 434 | 
CGCCCUGACGAAGGAUAUUAAGCUCAUACAUGAGGAUCACCCAUGUCCAUAGUAGUGUAUGCACCUGAGAAGGUCGUCAGCGCU [Eternabot solution 50] (Eterna round: R96, puzzle: Exclusion NG 2) | 213 | 257 |  |  |  | 240
